Results published in paper PMC7116145.

How the values were obtained:
[1] = target: CPTX-HIS, purified recombinant (UniProt P23435); test: SEC-MALS
[2] = target: NP1PTX fused to the C-terminus of a three-stranded GCN4 coiled coil (UniProt Q15818); test: SEC-MALS
[3] = target: CPTX, biotinylated on a C-terminal Avitag (immobilised in SPR) (UniProt P23435); test: SPR

Sequence of human β-neurexin-1 LNS6 domain including spliced sequence #4 (P58400 86-295): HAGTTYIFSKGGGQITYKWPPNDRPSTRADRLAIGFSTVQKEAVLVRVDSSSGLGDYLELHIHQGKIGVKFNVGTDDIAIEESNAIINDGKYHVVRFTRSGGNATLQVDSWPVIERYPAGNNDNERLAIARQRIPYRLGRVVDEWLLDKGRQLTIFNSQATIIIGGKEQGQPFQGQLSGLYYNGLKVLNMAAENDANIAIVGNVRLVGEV

Q: Which stoichiometry N [1] does the source give for “CPTX-HIS, purified recombinant (from UniProt P23435 22-53; Q15818 224-431) (designed binder)” here?
A: 6

Q: How did the stoichiometry N [2] turn out when “NP1PTX fused to the C-terminus of a three-stranded GCN4 coiled coil (from UniProt Q15818 224-431)” was run?
A: 3

Q: With “human β-neurexin-1 LNS6 domain including spliced sequence #4 (from UniProt P58400 86-295) (domain or fragment)” as the substance, how does the Kd [3] read?
A: 4.9 nM
